According to paper PMC4219823, “A Nuclear Factor of High Mobility Group Box Protein in Toxoplasma gondii”:

Target: T1, TgGRA1 (Toxoplasma gondii, UniProt P13403 25-190)
T1 sequence: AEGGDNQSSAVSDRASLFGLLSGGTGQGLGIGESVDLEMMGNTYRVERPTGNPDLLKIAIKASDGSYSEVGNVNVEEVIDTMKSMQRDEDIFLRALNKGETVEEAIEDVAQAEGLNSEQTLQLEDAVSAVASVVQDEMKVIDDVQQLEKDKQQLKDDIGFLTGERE
Assay: EMSA; 2 mg/mL protein
Settings: protein: recombinant; tags: His; label: biotin (TdT labeling); four-way junction of 4 strands

B1: 4H cruciform DNA (4H-a/4H-b/4H-c/4H-d) (structured_DNA)
DNA 1: AACAGTAGCTTATTCGAGCTCGCGCCCTATCACGACGACTA
DNA 2: GTAGTCGTCGTGATAGGTGCAGGGGTTATAGGG
DNA 3: CCCTATAACCCCTGCATTGAATTCCAGTCTGATAA
DNA 4: TTTATCAGACTGGAATTCAAGCGCGAGCTCGAATAAGCTACTGT
binding result: no binding
